Test results: the supplement of paper PMC10724198
± gives the standard deviation of the averaged measurements.

What was measured:
[1] = test system: Saccharomyces cerevisiae; assay: protein stability index of tFT-peptide fusion (C-terminal peptide) (PSI (0-1 scale)); higher = more stable (slower turnover)
Method: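 MPS profiling in S. cerevisiae of the tFT-X12 degron library: putative degron peptides plus stable controls, 12 aa, fused to the C-terminus of a sfGFP-mCherry timer. Cells are FACS-sorted into 8 mCherry/sfGFP bins and deep-sequenced. PSI runs from 0 (unstable) to 1 (stable). Backgrounds are wild type, das1Δ and doa10Δ at 30 °C, and wild type, das1Δ, cdc34-1 and cdc53-1 at 37 °C; 2-3 technical replicates each.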

[2] = test system: Saccharomyces cerevisiae; assay: as above; conditions: genetic background: wild type; temperature: 30 C
[3] = genetic background: cdc34-1, temperature: 37 C
[4] = genetic background: cdc53-1, temperature: 37 C
[5] = genetic background: das1 deletion, temperature: 30 C
[6] = genetic background: das1 deletion, temperature: 37 C
[7] = genetic background: doa10 deletion, temperature: 30 C
[8] = genetic background: wild type, temperature: 30 C
[9] = genetic background: wild type, temperature: 37 C
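Further: PSI is a weighted mean of sequencing reads over stability bins, variants kept only with over 10 reads, mCherry proximal and sfGFP distal, peptide attached via GGGS linker.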

| Sequence | protein stability index [1, 3] | protein stability index [1, 4] | protein stability index [1, 5] | protein stability index [1, 6] | protein stability index [1, 7] | protein stability index [1, 8] | protein stability index [1, 9] | protein stability index [2] |
| --- | --- | --- | --- | --- | --- | --- | --- | --- |
| CVGLYCLFVLLG | 0.289 ± 0.0046 | 0.357 ± 0.0088 | 0.273 ± 0.034 | 0.449 ± 0.019 | 0.172 ± 0.0049 | 0.161 ± 0.018 | 0.278 ± 0.0049 | 0.248 ± 0.004 |
| EKKRERQKGEME | 0.656 ± 0.055 | 0.7542 ± 0.0053 | 0.6109 ± 0.0056 | 0.72 ± 0.027 | 0.627 ± 0.026 | 0.635 ± 0.014 | 0.717 ± 0.012 | 0.579 ± 0.12 |
| GFVLLCFCCRTW | 0.28 ± 0.01 | 0.421 ± 0.052 | 0.287 ± 0.032 | 0.4828 ± 0.0044 | 0.2477 ± 0.00056 | 0.277 ± 0.035 | 0.426 ± 0.03 | 0.393 ± 0.004 |
| PFLCLPFLLVSR | 0.38 ± 0.022 | 0.4056 ± 0.0025 | 0.35 ± 0.029 | 0.49 ± 0.0032 | 0.467 ± 0.017 | 0.363 ± 0.027 | 0.47142 ± 0.0004 | 0.41 ± 0.034 |
| RKNSQKILKLSG | 0.6945 ± 0.0068 | 0.7724 ± 0.0073 | 0.64 ± 0.042 | 0.739 ± 0.024 | 0.256 ± 0.013 | 0.317 ± 0.019 | 0.576 ± 0.029 | 0.502 ± 0.15 |
| CFFSLLLLIFSV | 0.4101 ± 0.0016 | 0.412 ± 0.024 | 0.311 ± 0.041 | 0.4838 ± 0.0022 | 0.3486 ± 0.0032 | 0.31 ± 0.017 | 0.4476 ± 0.0032 | 0.377 ± 0.032 |
| LINHSWLLLSVL | 0.368 ± 0.017 | 0.432 ± 0.036 | 0.363 ± 0.038 | 0.521 ± 0.026 | 0.14246 ± 3.7e-05 | 0.133 ± 0.018 | 0.1583 ± 0.00095 | 0.325 ± 0.035 |
| WDLYFSVVYRVV | 0.35 ± 0.04 | 0.484 ± 0.017 | 0.403 ± 0.015 | 0.491 ± 0.017 | 0.0435 ± 0.021 | 0.0544 ± 0.0073 | 0.093 ± 0.0024 | 0.114 ± 0.0017 |
| VFLPVMVFFTFS | 0.337 ± 0.013 | 0.457 ± 0.066 | 0.277 ± 0.03 | 0.49592 ± 0.00031 | 0.255 ± 0.0082 | 0.282 ± 0.016 | 0.469 ± 0.016 | 0.4 ± 0.013 |
| RHTVFFCQLLLV | 0.291 ± 0.0074 | 0.368 ± 0.0077 | 0.307 ± 0.012 | 0.43923 ± 3.7e-05 | 0.175 ± 0.024 | 0.185 ± 0.026 | 0.277 ± 0.046 | 0.238 ± 0.003 |
| IFFVLVFFPGFF | 0.483 ± 0.036 | 0.541 ± 0.022 | 0.366 ± 0.035 | 0.548 ± 0.014 | 0.359 ± 0.023 | 0.374 ± 0.0071 | 0.506 ± 0.012 | 0.443 ± 0.06 |
| GFSEGRLTIPVY | 0.453 ± 0.025 | 0.4949 ± 0.0041 | 0.343 ± 0.04 | 0.5097 ± 0.0018 | 0.2949 ± 0.0027 | 0.345 ± 0.06 | 0.476 ± 0.01 | 0.455 ± 0.047 |
| EFWWPFDRRGVI | 0.76 ± 0.037 | 0.807 ± 0.011 | 0.7244 ± 0.0059 | 0.83 ± 0.015 | 0.721 ± 0.029 | 0.7117 ± 0.0043 | 0.822 ± 0.012 | 0.748 ± 0.011 |
| FGFWGVVSCCNA | 0.559 ± 0.045 | 0.566 ± 0.03 | 0.472 ± 0.02 | 0.599 ± 0.0011 | 0.459 ± 0.01 | 0.477 ± 0.011 | 0.5833 ± 0.0054 | 0.63 ± 0.18 |
| VSISLCVLCPVF | 0.268 ± 0.01 | 0.319 ± 0.016 | 0.258 ± 0.024 | 0.356 ± 0.0076 | 0.2408 ± 0.0018 | 0.261 ± 0.016 | 0.312 ± 0.008 | 0.349 ± 0.018 |
| SCRCIIFVCCFW | 0.256 ± 0.0043 | 0.404 ± 0.032 | 0.262 ± 0.025 | 0.465 ± 0.057 | 0.235 ± 0.0024 | 0.237 ± 0.034 | 0.388 ± 0.023 | 0.384 ± 0.011 |
| LLLALLFWPCPI | 0.5178 ± 0.0016 | 0.526 ± 0.0074 | 0.402 ± 0.028 | 0.559 ± 0.037 | 0.396 ± 0.024 | 0.39 ± 0.038 | 0.518 ± 0.021 | 0.473 ± 0.02 |
| LFLLSHYALCFY | 0.523 ± 0.0055 | 0.53 ± 0.018 | 0.441 ± 0.018 | 0.593 ± 0.028 | 0.333 ± 0.0045 | 0.336 ± 0.017 | 0.527 ± 0.012 | 0.3967 ± 0.0035 |
| SFLCGCVVCWLW | 0.464 ± 0.063 | 0.547 ± 0.039 | 0.397 ± 0.026 | 0.552 ± 0.011 | 0.4 ± 0.027 | 0.396 ± 0.014 | 0.505 ± 0.0073 | 0.449 ± 0.04 |
